From publication PMC10958042

B1: ATGL (PNPLA2, patatin-like phospholipase domain-containing protein 2), human, full length / CGI-58 (ABHD5, 1-acylglycerol-3-phosphate O-acyltransferase ABHD5), human (parent)
chain 1: MFPREKTWNISFAGCGFLGVYYVGVASCLREHAPFLVANATHIYGASAGALTATALVTGVCLGEAGAKFIEVSKEARKRFLGPLHPSFNLVKIIRSFLLKVLPADSHEHASGRLGISLTRVSDGENVIISHFNSKDELIQANVCSGFIPVYCGLIPPSLQGVRYVDGGISDNLPLYELKNTITVSPFSGESDICPQDSSTNIHELRVTNTSIQFNLRNLYRLSKALFPPEPLVLREMCKQGYRDGLRFLQRNGLLNRPNPLLALPPARPHGPEDKDQAVESAQAEDYSQLPGEDHILEHLPARLNEALLEACVEPTDLLTTLSNMLPVRLATAMMVPYTLPLESALSFTIRLLEWLPDVPEDIRWMKEQTGSICQYLVMRAKRKLGRHLPSRLPEQVELRRVQSLPSVPLSCAAYREALPGWMRNNLSLGDALAKWEECQRQLLLGLFCTNVAFPPEALRMRAPADPAPAPADPASPQHQLAGPAPLLSTPAPEARPVIGALGL
chain 2: MAAEEEEVDSADTGERSGWLTGWLPTWCPTSISHLKEAEEKMLKCVPCTYKKEPVRISNGNKIWTLKFSHNISNKTPLVLLHGFGGGLGLWALNFGDLCTNRPVYAFDLLGFGRSSRPRFDSDAEEVENQFVESIEEWRCALGLDKMILLGHNLGGFLAAAYSLKYPSRVNHLILVEPWGFPERPDLADQDRPIPVWIRALGAALTPFNPLAGLRIAGPFGLSLVQRLRPDFKRKYSSMFEDDTVTEYIYHCNVQTPSGETAFKNMTIPYGWAKRPMLQRIGKMHPDIPVSVIFGARSCIDGNSGTSIQSLRPHSYVKTIAILGAGHYVYADQPEEFNQKVKEICDTVD

Variants of: B1
Assay: LUMIER: Protein A-ATGL variant and firefly luciferase-partner co-expressed in HEK293T, lysates immunoprecipitated on IgG-coated plates, co-precipitated partner measured as luciferase luminescence
Settings: with CGI-58 (ABHD5, 1-acylglycerol-3-phosphate O-acyltransferase ABHD5), transient co-transfection, IgG-coated LUMITRAC plates, 2 h at 4 °C, three PBS washes, Bright-Glo luciferase reagent, triplicates per assay, two …, scale: log2 fold change of co-immunoprecipitated luminescence relative to wild-type ATGL within each experiment

chain 1 MFPREKTWNISFAGCGFLGVYYVGVASCLREHAPFLVANATHIYGASAGALTATALVTGVCLGEAGAKFIEVSKEARKRFLGPLHPSFNLVKIIRSFLLKVLPADSHEHASGRLGISLTRVSDGENVIISHFNSKDELIQANVCSGFIPVYCGLIPPSLQGVRYVDGGISDNLPLYELKNTITVSPFSGESDICPQDSSTNIHELRVTNTSIQFNLRNLYRLSKALFPPEPLVLREMCKQGYRDGLRFLQRNGLLNRPNPLLALPPARPHGPEDKDQAVESAQAEDYSQLPGEDHILEHLPARLNEALLEACVEPTDLLTTLSNMLPVRLATAMMVPYTLPLESALSFTIRLLEWLPDVPEDIRWMKEQTGSICQYLVMRAKRKLGRHLPSRLPEQVELRRVQSLPSVPLSCAAYREALPGWMRNNLSLGDALLKWEECQRQLLLGLFCTNVAFPPEALRMRAPADPAPAPADPASPQHQLAGPAPLLSTPAPEARPVIGALGL [chain 1 A434L] gave a screen value (parent: 0.32, not graded) of 0.0792 and a screen value (parent: 0.45, not graded) of 0.226.

chain 1 MFPREKTWNISFAGCGFLGVYYVGVASCLREHAPFLVANATHIYGASAGALTATALVTGVCLGEAGAKFIEVSKEARKRFLGPLHPSFNLVKIIRSFLLKVLPADSHEHASGRLGISLTRVSDGENVIISHFNSKDELIQANVCSGFIPVYCGLIPPSLQGVRYVDGGISDNLPLYELKNTITVSPFSGESDICPQDSSTNIHELRVTNTSIQFNLRNLYRLSKALFPPEPLVLREMCKQGYRDGLRFLQRNGLLNRPNPLLALPPARPHGPEDKDQAVESAQAEDYSQLPGEDHILEHLPARLNEALLEACVEPTDLLTTLSNMLPVRLATAMMVPYTLPLESALSFTIRLLEWLPDVPEDIRWMKEQTGSICQYLVMRAKRKLGRHLPSRLPEQVELRRVQSLPSVPLSCAAYREALPGWMRNNLSLGDALAKWEECQRQLLLGLFCTNVEFPPEALRMRAPADPAPAPADPASPQHQLAGPAPLLSTPAPEARPVIGALGL [chain 1 A453E] gave a screen value (parent: 0.32, not graded) of 0.381 and a screen value (parent: 0.45, not graded) of 0.474.

chain 1 MFPREKTWNISFAGCGFLGVYYVGVASCLREHAPFLVANATHIYGASAGALTATALVTGVCLGEAGAKFIEVSKEARKRFLGPLHPSFNLVKIIRSFLLKVLPADSHEHASGRLGISLTRVSDGENVIISHFNSKDELIQANVCSGFIPVYCGLIPPSLQGVRYVDGGISDNLPLYELKNTITVSPFSGESDICPQDSSTNIHELRVTNTSIQFNLRNLYRLSKALFPPEPLVLREMCKQGYRDGLRFLQRNGLLNRPNPLLALPPARPHGPEDKDQAVESAQAEDYSQLPGEDHILEHLPARLNEALLEACVEPTDLLTTLSNMLPVRLATAMMVPYTLPLESALSFTIRLLEWLPDVPEDIRWMKAQTGSICQYLVMRAKRKLGRHLPSRLPEQVELRRVQSLPSVPLSCAAYREALPGWMRNNLSLGDALAKWEECQRQLLLGLFCTNVAFPPEALRMRAPADPAPAPADPASPQHQLAGPAPLLSTPAPEARPVIGALGL [chain 1 E368A] showed a screen value (parent: 0.32, not graded) of -0.427 and a screen value (parent: 0.45, not graded) of -0.714.

With chain 1 MFPREKTWNISFAGCGFLGVYYVGVASCLREHAPFLVANATHIYGASAGALTATALVTGVCLGEAGAKFIEVSKEARKRFLGPLHPSFNLVKIIRSFLLKVLPADSHEHASGRLGISLTRVSDGENVIISHFNSKDELIQANVCSGFIPVYCGLIPPSLQGVRYVDGGISDNLPLYELKNTITVSPFSGESDICPQDSSTNIHELRVTNTSIQFNLRNLYRLSKALFPPEPLVLREMCKQGYRDGLRFLQRNGLLNRPNPLLALPPARPHGPEDKDQAVESAQAEDYSQLPGEDHILEHLPARLNEALLEACVAPTDLLTTLSNMLPVRLATAMMVPYTLPLESALSFTIRLLEWLPDVPEDIRWMKEQTGSICQYLVMRAKRKLGRHLPSRLPEQVELRRVQSLPSVPLSCAAYREALPGWMRNNLSLGDALAKWEECQRQLLLGLFCTNVAFPPEALRMRAPADPAPAPADPASPQHQLAGPAPLLSTPAPEARPVIGALGL [chain 1 E314A] the screen value (parent: 0.32, not graded) was -0.218 and the screen value (parent: 0.45, not graded) was -0.112.

In the case of chain 1 MFPREKTWNISFAGCGFLGVYYVGVASCLREHAPFLVANATHIYGASAGALTATALVTGVCLGEAGAKFIEVSKEARKRFLGPLHPSFNLVKIIRSFLLKVLPEDSHEHASGRLGISLTRVSDGENVIISHFNSKDELIQANVCSGFIPVYCGLIPPSLQGVRYVDGGISDNLPLYELKNTITVSPFSGESDICPQDSSTNIHELRVTNTSIQFNLRNLYRLSKALFPPEPLVLREMCKQGYRDGLRFLQRNGLLNRPNPLLALPPARPHGPEDKDQAVESAQAEDYSQLPGEDHILEHLPARLNEALLEACVEPTDLLTTLSNMLPVRLATAMMVPYTLPLESALSFTIRLLEWLPDVPEDIRWMKEQTGSICQYLVMRAKRKLGRHLPSRLPEQVELRRVQSLPSVPLSCAAYREALPGWMRNNLSLGDALAKWEECQRQLLLGLFCTNVAFPPEALRMRAPADPAPAPADPASPQHQLAGPAPLLSTPAPEARPVIGALGL [chain 1 A104E], the screen value (parent: 0.32, not graded) is reported as 0.291 and the screen value (parent: 0.45, not graded) is reported as 0.0407.

With chain 1 MFPREKTWNISFAGCGFLGVYYVGVASCLREHAPFLVANATHIYGASAGALTATALVTGVCLGEAGAKFIEVSKEARKRFLGPLHPSFNLVKIIRSFLLKVLPADSHEHASGRLGISLTRVSDGLNVIISHFNSKDELIQANVCSGFIPVYCGLIPPSLQGVRYVDGGISDNLPLYELKNTITVSPFSGESDICPQDSSTNIHELRVTNTSIQFNLRNLYRLSKALFPPEPLVLREMCKQGYRDGLRFLQRNGLLNRPNPLLALPPARPHGPEDKDQAVESAQAEDYSQLPGEDHILEHLPARLNEALLEACVEPTDLLTTLSNMLPVRLATAMMVPYTLPLESALSFTIRLLEWLPDVPEDIRWMKEQTGSICQYLVMRAKRKLGRHLPSRLPEQVELRRVQSLPSVPLSCAAYREALPGWMRNNLSLGDALAKWEECQRQLLLGLFCTNVAFPPEALRMRAPADPAPAPADPASPQHQLAGPAPLLSTPAPEARPVIGALGL [chain 1 E125L] the screen value (parent: 0.32, not graded) was -0.624 and the screen value (parent: 0.45, not graded) was -0.2.
